Source: patent US20040110930A1
“And” between values parts separate entries of the source, which are not always exact repeats. Equal entries are not always repeated. Values belong to the binder of their own block, whether it stands above or below them.

How the values were obtained:
38C13 scFv protein [1] = test: ELISA, coated 38C13 scFv 5 ug/ml; 0.098 ng Fab; background subtracted
38C13 scFv protein [2] = test: ELISA, coated 38C13 scFv 5 ug/ml; 0.049 ng Fab; background subtracted
38C13 scFv protein [3] = test: ELISA, coated 38C13 scFv 5 ug/ml; 25.000 ng Fab; background subtracted
38C13 scFv protein [4] = test: ELISA, coated 38C13 scFv 5 ug/ml; 50.000 ng Fab; background subtracted
38C13 scFv protein [5] = test: ELISA, coated 38C13 scFv 5 ug/ml; 0.195 ng Fab; background subtracted
38C13 scFv protein [6] = test: ELISA, coated 38C13 scFv 5 ug/ml; 0.391 ng Fab; background subtracted
38C13 scFv protein [7] = test: ELISA, coated 38C13 scFv 5 ug/ml; 0.781 ng Fab; background subtracted
38C13 scFv protein [8] = test: ELISA, coated 38C13 scFv 5 ug/ml; 3.125 ng Fab; background subtracted
38C13 scFv protein [9] = test: ELISA, coated 38C13 scFv 5 ug/ml; 12.500 ng Fab; background subtracted
38C13 scFv protein [10] = test: ELISA, coated 38C13 scFv 5 ug/ml; 1.563 ng Fab; background subtracted
38C13 scFv protein [11] = test: ELISA, coated 38C13 scFv 5 ug/ml; 6.250 ng Fab; background subtracted
38C13 scFv protein [12] = test: ELISA, coated 38C13 scFv 5 ug/ml; 9.375 ng MAb; background subtracted
38C13 scFv protein [13] = test: ELISA, coated 38C13 scFv 5 ug/ml; 18.750 ng MAb; background subtracted
38C13 scFv protein [14] = test: ELISA, coated 38C13 scFv 5 ug/ml; 0.586 ng MAb; background subtracted
38C13 scFv protein [15] = test: ELISA, coated 38C13 scFv 5 ug/ml; 0.293 ng MAb; background subtracted
38C13 scFv protein [16] = test: ELISA, coated 38C13 scFv 5 ug/ml; 4.688 ng MAb; background subtracted
38C13 scFv protein [17] = test: ELISA, coated 38C13 scFv 5 ug/ml; 1.172 ng MAb; background subtracted
38C13 scFv protein [18] = test: ELISA, coated 38C13 scFv 5 ug/ml; 75.000 ng MAb; background subtracted
38C13 scFv protein [19] = test: ELISA, coated 38C13 scFv 5 ug/ml; 2.344 ng MAb; background subtracted
38C13 scFv protein [20] = test: ELISA, coated 38C13 scFv 5 ug/ml; 37.500 ng MAb; background subtracted
38C13 scFv protein [21] = test: ELISA, coated 38C13 scFv 5 ug/ml; 150.000 ng MAb; background subtracted
38C13 scFv protein [22] = test: ELISA, coated 38C13 scFv 5 ug/ml; 0.146 ng MAb; background subtracted

- A450 (38C13 scFv protein [1]): 0.009 A450 and 0.018 A450
- A450 (38C13 scFv protein [2]): 0.008 A450 and 0.003 A450
- A450 (38C13 scFv protein [3]): 0.498 A450 and 0.51 A450
- A450 (38C13 scFv protein [4]): 0.481 A450 and 0.516 A450
- A450 (38C13 scFv protein [5]): 0.03 A450 and 0.023 A450
- A450 (38C13 scFv protein [6]): 0.047 A450 and 0.05 A450
- A450 (38C13 scFv protein [7]): 0.095 A450 and 0.094 A450
- A450 (38C13 scFv protein [8]): 0.273 A450 and 0.266 A450
- A450 (38C13 scFv protein [9]): 0.46 A450 and 0.465 A450
- A450 (38C13 scFv protein [10]): 0.168 A450 and 0.171 A450
- A450 (38C13 scFv protein [11]): 0.346 A450 and 0.363 A450
B1: control S1C5 Fab produced from mouse ascites MAb using the ImmunoPure Fab Kit (Fab, V domains shown)
VH: EVKLEQSGAELVKPGASVKISCKASGYTFTDHVIHWVKQRPEQGLEWIGFISPGNGDIRYNEKFKDKATLTADKSSSTAYMQLNSLTSEDSAVYFCKRSFYYYDDNYGDYWGQGTTLTVSS
VL: QIVLTQSPAIMSASLGERVTMTCTASSSVSSSYFHWYQQKPGSSPKLWIYTTSNLASGVPARFSGSGSGTSYSLTISSMEAEDAATYYCHQYHRSPLTFGAGTKLELKR

- A450 (38C13 scFv protein [12]): 0.295 A450 and 0.307 A450
- A450 (38C13 scFv protein [13]): 0.39 A450 and 0.397 A450
- A450 (38C13 scFv protein [14]): 0.03 A450 and 0.029 A450
- A450 (38C13 scFv protein [15]): 0.014 A450 and 0.015 A450
- A450 (38C13 scFv protein [16]): 0.198 A450 and 0.194 A450
- A450 (38C13 scFv protein [17]): 0.061 A450
- A450 (38C13 scFv protein [18]): 0.514 A450 and 0.517 A450
- A450 (38C13 scFv protein [19]): 0.106 A450 and 0.113 A450
- A450 (38C13 scFv protein [20]): 0.477 A450 and 0.482 A450
- A450 (38C13 scFv protein [21]): 0.521 A450 and 0.52 A450
- A450 (38C13 scFv protein [22]): 0.007 A450 and 0.004 A450
B2: pLSBC1798 produced S1C5 MAb (antibody, V domains shown)
VH: B1 VH
VL: B1 VL

- A450 (38C13 scFv protein [12]): 0.39 A450 and 0.395 A450
- A450 (38C13 scFv protein [13]): 0.476 A450 and 0.429 A450
- A450 (38C13 scFv protein [14]): 0.053 A450 and 0.047 A450
- A450 (38C13 scFv protein [15]): 0.025 A450 and 0.023 A450
- A450 (38C13 scFv protein [16]): 0.283 A450 and 0.284 A450
- A450 (38C13 scFv protein [17]): 0.105 A450 and 0.096 A450
- A450 (38C13 scFv protein [18]): 0.532 A450 and 0.515 A450
- A450 (38C13 scFv protein [19]): 0.18 A450 and 0.179 A450
- A450 (38C13 scFv protein [20]): 0.443 A450 and 0.497 A450
- A450 (38C13 scFv protein [21]): 0.517 A450 and 0.538 A450
- A450 (38C13 scFv protein [22]): 0.012 A450 and 0.01 A450
B3: Control S1C5 MAb from mouse ascites fluid (antibody, V domains shown)
VH: B1 VH
VL: B1 VL

- A450 (38C13 scFv protein [1]): 0.025 A450 and 0.019 A450
- A450 (38C13 scFv protein [2]): 0.01 A450 and 0.011 A450
- A450 (38C13 scFv protein [3]): 0.521 A450 and 0.519 A450
- A450 (38C13 scFv protein [4]): 0.524 A450 and 0.504 A450
- A450 (38C13 scFv protein [5]): 0.049 A450 and 0.041 A450
- A450 (38C13 scFv protein [6]): 0.09 A450 and 0.094 A450
- A450 (38C13 scFv protein [7]): 0.168 A450 and 0.154 A450
- A450 (38C13 scFv protein [8]): 0.366 A450 and 0.35 A450
- A450 (38C13 scFv protein [9]): 0.487 A450 and 0.485 A450
- A450 (38C13 scFv protein [10]): 0.263 A450 and 0.247 A450
- A450 (38C13 scFv protein [11]): 0.468 A450 and 0.449 A450
B4: pLSBC1792 produced S1C5 Fab (Fab, V domains shown)
VH: B1 VH
VL: B1 VL
